Tested on: peptide library, one residue held at a place counted from the S/T acceptor
Assay: relative phosphorylation of the sub-library (ratio to the mean residue at this position); higher = residue favoured
How it was run: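 Human or orthologue kinase constructs, purified and recombinant, were incubated under kinase-specific conditions in 384-well plates with biotinylated degenerate peptide sub-libraries. Each sub-library fixed one residue at one position around a central Ser/Thr. Incubations lasted 90 min with peptides at 50 μM and 50 μM ATP spiked with γ-32P-ATP, after which spots on streptavidin membranes were phosphorimaged and quantified by densitometry. Relative sub-library phosphorylation is a ratio to the mean residue at that position.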

Chain of STK38, construct: Full length, human (Q15208 whole entry, looked up): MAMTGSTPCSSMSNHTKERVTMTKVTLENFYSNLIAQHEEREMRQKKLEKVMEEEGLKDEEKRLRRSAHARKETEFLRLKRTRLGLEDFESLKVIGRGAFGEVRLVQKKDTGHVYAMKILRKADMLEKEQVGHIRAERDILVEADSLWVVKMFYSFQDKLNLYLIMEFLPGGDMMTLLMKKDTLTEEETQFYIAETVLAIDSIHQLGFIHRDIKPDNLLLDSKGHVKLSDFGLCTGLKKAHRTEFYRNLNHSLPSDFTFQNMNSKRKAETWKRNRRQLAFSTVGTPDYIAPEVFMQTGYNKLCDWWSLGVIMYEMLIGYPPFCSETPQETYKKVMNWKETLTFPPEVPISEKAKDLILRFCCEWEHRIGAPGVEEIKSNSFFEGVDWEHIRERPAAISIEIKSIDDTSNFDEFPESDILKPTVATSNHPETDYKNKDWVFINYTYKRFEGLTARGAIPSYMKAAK

STK38, construct: Full length, human (from UniProt Q15208)
relative phosphorylation
Details	at +1	at +2	at +3	at +4	at -1	at -2	at -3	at -4	at -5
A fixed	0.75	1.35	0.73	0.791	0.743	0.739	0.655	0.978	0.83
D fixed	0.673	1.2	0.723	1.06	0.728	0.6	0.558	0.704	0.609
E fixed	0.644	0.483	0.631	0.807	0.524	0.494	0.476	0.71	0.477
F fixed	0.893	0.79	1.04	0.894	0.545	0.758	0.413	0.596	0.557
G fixed	1.36	1.33	1.23	1.16	1.45	0.936	0.771	1.09	0.88
H fixed	1.04	2.51	1.3	1.03	1.18	1.56	1.35	1.26	3.01
I fixed	1.07	0.495	0.738	0.891	0.325	0.38	0.31	0.575	0.498
K fixed	0.845	0.783	1.12	1.13	1.94	2.24	2.21	2.17	2.44
L fixed	0.932	0.516	1.02	0.897	0.752	0.451	0.377	0.618	0.546
M fixed	1.59	0.575	0.831	0.929	0.751	0.571	0.455	0.745	0.477
N fixed	1.13	1.11	0.954	1.16	1.34	1.23	0.841	0.878	0.795
P fixed	0.335	0.69	0.872	1.28	1.65	0.83	1.18	1.04	0.749
Q fixed	1.15	0.982	0.938	1.12	1.17	0.974	0.886	0.966	0.737
R fixed	1.06	0.87	1.27	1.1	1.61	3.03	4.9	2.46	2.35
V fixed	0.965	1.01	0.729	0.835	0.477	0.421	0.35	0.6	0.542
W fixed	1.4	1.32	1.59	1.05	0.777	1.05	0.637	0.884	0.867
Y fixed	1.18	0.992	1.29	0.865	1.03	0.727	0.636	0.733	0.636
pThr fixed	1.01	0.848	0.709	0.92	0.546	0.635	0.572	0.738	0.545
pTyr fixed	0.731	0.745	0.819	0.623	0.559	0.525	0.613	0.547	0.515

— the supplement of paper PMC9876800
